Measurements from paper PMC11024467.

Target: IL-2Rα (UniProt P01589)
Experiment: SPR; Biacore, IL-2 receptor proteins immobilised on a CM5 chip; wild-type IL-2 or variant 012 flowed over at stepwise concentrations for 120 s, then blank solution; 1:1 binding fit (steady state affinity for 001 on IL-2Rα)

Sequence of IL-2Rα (P01589 22-272): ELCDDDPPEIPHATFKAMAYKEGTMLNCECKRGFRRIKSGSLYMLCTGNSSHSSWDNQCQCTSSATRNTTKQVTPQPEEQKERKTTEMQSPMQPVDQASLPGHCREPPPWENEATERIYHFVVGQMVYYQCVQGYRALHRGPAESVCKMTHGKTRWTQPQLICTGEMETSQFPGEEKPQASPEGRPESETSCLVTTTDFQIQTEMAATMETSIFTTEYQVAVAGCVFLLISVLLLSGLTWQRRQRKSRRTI

Kd: 47.5 nM
Substance: wild-type IL-2 (001) (ligand)
